Measurements as given in patent publication US20250277048A1.

Molecular target: human CD40 (hCD40) expressed on cells (human) (UniProt P25942)
Test: cell-based or functional assay

Sequence of human CD40 (hCD40) expressed on cells (human) (P25942 21-277): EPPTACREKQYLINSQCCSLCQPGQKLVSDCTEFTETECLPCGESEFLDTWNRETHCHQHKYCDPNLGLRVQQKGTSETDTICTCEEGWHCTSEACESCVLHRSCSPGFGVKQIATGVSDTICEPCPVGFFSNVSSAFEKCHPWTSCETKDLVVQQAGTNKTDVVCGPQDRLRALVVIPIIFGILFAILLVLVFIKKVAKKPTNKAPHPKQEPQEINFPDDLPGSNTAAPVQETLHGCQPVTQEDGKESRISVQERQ

- EC50 of activation, Raji/NFkB-luc: 0.691 nM
- EC50 of activation, Ramos.2G6.4C10/NFkB-luc: 0.436 nM
- EC50 of activation, THP-1/NFkB-luc: 1.47 nM
Substance: human CD40L (soluble, used in the cell assays) (from UniProt P29965 113-261) (ligand)
